Laboratory results taken from US20160200782A1 (MOERAE MATRIX, published 2016).

T1: EphB2(h) (human, UniProt P29323 565-986, limits assumed)
T1 sequence (looked up): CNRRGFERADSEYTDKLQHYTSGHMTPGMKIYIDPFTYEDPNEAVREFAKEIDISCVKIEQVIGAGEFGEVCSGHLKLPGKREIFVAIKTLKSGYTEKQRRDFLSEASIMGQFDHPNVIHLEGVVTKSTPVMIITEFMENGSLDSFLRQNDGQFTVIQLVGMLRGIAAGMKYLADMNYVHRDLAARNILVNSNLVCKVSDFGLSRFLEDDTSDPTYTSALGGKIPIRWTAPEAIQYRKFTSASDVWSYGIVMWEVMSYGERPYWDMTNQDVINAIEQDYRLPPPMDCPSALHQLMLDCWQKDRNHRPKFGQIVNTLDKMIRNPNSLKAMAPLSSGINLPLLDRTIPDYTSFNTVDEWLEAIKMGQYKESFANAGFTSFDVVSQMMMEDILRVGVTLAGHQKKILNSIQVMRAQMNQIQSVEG

T2: LKB1(h) (human, UniProt Q15831 1-433, limits assumed)
T2 sequence (looked up): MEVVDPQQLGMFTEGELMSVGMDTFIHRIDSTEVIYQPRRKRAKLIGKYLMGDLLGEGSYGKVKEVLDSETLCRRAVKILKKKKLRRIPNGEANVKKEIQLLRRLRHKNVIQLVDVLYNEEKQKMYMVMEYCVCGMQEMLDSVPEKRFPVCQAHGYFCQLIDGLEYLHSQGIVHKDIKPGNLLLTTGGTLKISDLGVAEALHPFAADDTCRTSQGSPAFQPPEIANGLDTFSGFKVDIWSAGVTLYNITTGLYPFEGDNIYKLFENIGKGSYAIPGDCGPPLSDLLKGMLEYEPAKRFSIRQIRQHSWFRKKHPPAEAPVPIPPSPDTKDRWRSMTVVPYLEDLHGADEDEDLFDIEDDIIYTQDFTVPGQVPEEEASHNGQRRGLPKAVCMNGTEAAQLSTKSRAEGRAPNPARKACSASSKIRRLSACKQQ

T3: GCK(h) (human, UniProt Q12851 1-820, limits assumed)
T3 sequence (looked up): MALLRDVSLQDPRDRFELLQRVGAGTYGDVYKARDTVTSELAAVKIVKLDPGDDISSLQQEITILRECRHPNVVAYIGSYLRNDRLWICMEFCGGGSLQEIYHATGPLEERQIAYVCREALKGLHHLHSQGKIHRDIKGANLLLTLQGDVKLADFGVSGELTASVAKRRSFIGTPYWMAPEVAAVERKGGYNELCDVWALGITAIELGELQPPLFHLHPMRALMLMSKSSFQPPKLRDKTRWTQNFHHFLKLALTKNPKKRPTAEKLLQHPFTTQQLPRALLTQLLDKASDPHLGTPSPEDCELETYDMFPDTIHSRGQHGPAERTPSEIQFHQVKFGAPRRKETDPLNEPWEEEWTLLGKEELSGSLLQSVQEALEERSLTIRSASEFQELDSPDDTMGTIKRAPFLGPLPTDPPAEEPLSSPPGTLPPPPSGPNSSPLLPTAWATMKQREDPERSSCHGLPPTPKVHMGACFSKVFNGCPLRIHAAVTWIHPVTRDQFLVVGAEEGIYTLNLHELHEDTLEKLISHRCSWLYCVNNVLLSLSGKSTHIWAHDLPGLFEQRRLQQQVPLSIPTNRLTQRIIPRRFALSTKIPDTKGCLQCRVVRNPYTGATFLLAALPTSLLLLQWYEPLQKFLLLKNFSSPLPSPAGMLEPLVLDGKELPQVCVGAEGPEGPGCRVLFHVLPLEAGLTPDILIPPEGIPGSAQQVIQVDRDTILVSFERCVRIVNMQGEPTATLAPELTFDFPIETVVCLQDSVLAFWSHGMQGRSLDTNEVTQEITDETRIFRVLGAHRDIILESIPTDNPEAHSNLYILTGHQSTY

T4: TAK1(h) (human, UniProt O43318 1-303, limits assumed)
T4 sequence (looked up): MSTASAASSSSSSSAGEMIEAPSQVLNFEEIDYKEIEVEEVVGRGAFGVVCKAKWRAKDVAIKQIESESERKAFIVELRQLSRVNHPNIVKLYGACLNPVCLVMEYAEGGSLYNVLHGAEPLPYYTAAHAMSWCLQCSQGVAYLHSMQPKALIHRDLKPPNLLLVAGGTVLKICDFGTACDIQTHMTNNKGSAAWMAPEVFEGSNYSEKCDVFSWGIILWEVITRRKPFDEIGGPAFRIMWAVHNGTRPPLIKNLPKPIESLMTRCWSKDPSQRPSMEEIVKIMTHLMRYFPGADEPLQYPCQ


Key:
Assay in all cases: cell-based or functional assay
EphB2(h) = target: T1, EphB2(h)
PAK4(h) = PAK4(h) (human, UniProt O96013 1-591, limits assumed)
LKB1(h) = target: T2, LKB1(h)
GCK(h) = target: T3, GCK(h)
IR(h) = IR(h) (human, UniProt P06213 1005-1310, limits assumed)
TAK1(h) = target: T4, TAK1(h)
c-RAF(h) = c-RAF(h) (human, UniProt P04049 306-648, limits assumed)
Lck(h) activated = Lck(h) activated (human, UniProt P06239 1-509, limits assumed)
GSK3α(h) = GSK3α(h) (human, UniProt P49840 1-483)
NEK7(h) = NEK7(h) (human, UniProt Q8TDX7 1-302)
SAPK2a(h) = SAPK2a(h) (human, UniProt Q16539 1-360)
Met(Y1248D)(h) = Met(Y1248D)(h) (human, UniProt P08581-2 974-1408, limits assumed)
Further: test concentration or dose not given here.

Sequence of GSK3α(h) (P49840 whole entry): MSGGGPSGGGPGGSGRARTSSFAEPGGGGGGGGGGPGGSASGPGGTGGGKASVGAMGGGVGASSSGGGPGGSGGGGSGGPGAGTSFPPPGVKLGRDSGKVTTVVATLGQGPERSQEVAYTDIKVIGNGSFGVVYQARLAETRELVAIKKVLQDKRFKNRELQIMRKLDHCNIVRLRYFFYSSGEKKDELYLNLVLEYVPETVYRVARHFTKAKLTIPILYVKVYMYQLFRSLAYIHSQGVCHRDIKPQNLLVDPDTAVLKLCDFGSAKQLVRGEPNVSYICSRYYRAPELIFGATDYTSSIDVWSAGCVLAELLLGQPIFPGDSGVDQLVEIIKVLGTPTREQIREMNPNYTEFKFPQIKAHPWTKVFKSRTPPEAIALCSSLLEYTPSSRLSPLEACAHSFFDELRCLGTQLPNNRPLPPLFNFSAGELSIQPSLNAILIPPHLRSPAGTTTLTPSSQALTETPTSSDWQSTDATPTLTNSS
Sequence of PAK4(h) (O96013 whole entry): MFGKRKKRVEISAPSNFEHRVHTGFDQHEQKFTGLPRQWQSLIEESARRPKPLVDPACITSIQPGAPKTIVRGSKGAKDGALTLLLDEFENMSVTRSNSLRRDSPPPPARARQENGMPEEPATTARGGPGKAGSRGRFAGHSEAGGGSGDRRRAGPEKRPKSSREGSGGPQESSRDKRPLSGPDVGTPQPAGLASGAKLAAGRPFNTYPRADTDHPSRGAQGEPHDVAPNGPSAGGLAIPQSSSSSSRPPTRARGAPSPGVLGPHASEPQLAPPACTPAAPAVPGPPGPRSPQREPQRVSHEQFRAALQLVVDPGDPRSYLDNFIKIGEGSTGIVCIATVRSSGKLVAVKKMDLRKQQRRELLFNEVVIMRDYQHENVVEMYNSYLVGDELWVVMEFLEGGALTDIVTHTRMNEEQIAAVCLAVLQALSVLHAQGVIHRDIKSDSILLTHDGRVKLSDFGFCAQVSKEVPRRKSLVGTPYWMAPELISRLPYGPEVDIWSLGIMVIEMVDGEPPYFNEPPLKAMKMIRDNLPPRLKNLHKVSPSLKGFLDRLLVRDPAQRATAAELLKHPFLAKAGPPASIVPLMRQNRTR
Sequence of IR(h) (P06213 1005-1310 limits assumed): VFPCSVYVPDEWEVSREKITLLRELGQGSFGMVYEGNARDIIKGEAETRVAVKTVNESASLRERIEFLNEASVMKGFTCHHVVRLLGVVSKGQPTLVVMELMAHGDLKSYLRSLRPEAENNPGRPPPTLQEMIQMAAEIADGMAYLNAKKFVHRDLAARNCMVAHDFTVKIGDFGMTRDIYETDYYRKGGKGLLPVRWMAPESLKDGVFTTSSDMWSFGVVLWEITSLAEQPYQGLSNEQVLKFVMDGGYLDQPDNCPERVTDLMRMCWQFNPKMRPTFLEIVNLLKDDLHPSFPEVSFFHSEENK
Sequence of Lck(h) activated (P06239 whole entry): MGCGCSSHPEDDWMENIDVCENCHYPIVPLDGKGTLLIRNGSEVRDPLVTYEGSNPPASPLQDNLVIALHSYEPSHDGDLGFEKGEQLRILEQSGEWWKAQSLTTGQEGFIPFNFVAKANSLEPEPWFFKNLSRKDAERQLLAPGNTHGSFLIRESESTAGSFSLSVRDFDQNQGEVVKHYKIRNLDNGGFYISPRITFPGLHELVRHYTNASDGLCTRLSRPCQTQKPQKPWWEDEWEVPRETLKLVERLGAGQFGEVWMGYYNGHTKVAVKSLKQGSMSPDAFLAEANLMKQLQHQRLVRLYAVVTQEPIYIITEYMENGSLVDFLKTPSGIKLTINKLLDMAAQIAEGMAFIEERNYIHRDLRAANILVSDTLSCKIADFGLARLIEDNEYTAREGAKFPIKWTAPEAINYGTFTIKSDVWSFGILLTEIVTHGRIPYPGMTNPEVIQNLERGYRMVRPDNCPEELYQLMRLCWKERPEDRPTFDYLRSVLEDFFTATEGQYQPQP
Sequence of NEK7(h) (Q8TDX7 whole entry): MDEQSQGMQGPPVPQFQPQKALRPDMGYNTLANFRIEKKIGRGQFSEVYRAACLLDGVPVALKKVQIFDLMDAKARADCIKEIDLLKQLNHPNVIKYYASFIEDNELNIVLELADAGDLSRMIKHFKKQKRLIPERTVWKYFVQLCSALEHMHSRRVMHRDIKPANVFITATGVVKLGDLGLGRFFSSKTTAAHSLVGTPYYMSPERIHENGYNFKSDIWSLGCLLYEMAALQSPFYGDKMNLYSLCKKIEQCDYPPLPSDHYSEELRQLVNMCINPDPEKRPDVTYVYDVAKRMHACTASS
Sequence of SAPK2a(h) (Q16539 whole entry): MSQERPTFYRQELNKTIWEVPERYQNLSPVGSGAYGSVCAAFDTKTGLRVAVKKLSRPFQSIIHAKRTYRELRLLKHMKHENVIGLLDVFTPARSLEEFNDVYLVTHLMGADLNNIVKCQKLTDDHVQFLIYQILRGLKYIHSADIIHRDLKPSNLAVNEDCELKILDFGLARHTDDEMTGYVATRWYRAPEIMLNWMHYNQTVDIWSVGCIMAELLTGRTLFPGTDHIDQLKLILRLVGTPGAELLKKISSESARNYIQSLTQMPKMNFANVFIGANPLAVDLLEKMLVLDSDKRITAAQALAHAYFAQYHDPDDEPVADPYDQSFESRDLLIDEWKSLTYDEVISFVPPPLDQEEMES

Binder	% activity (EphB2(h)) [%]	% activity (PAK4(h)) [%]	% activity (LKB1(h)) [%]	% activity (GCK(h)) [%]	% activity (IR(h)) [%]	% activity (TAK1(h)) [%]	% activity (c-RAF(h)) [%]	% activity (Lck(h) activated) [%]	% activity (GSK3α(h)) [%]	% activity (NEK7(h)) [%]	% activity (SAPK2a(h)) [%]	% activity (Met(Y1248D)(h)) [%]
FAKLAARLYRKALARQLGVAA [MMI-0300]	18	94	101	70	96	122	107	243	157	84	90	102
KAFAKLAARLYRKALARQLGVAA [MMI-0400]	22	89	89	66	85	177	102	216	164	87	85	31
